From patent US20220289845A1 come the findings set out here.

The target of assay [1] is human CD47 (UniProt Q08722). Description: SPR; average. Background: Surface plasmon resonance follows binding to a sensor surface in real time, without labels.
Assay [2] has as its target cynomolgus CD47. Description: SPR; average.
Assay [3] has as its target human CD47 (UniProt Q08722). Description: SPR; assay 2.
Assay [4] concerns the target cynomolgus CD47. Description: SPR; assay 2.
The target in assay [5] is human CD47 (UniProt Q08722). Description: SPR; assay 1.
The target of assay [6] is cynomolgus CD47. Description: SPR; assay 1.
Chain of cynomolgus CD47 (Q08722 other isoform, or with tags, fused parts or gaps): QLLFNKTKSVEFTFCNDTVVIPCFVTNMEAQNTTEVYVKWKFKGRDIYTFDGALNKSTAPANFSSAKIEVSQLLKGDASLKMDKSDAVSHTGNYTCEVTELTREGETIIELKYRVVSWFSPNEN

Chain of human CD47 (Q08722 19-142): as the sequence (Q08722 other isoform, or with tags, fused parts or gaps) above, with A59V, A61T, N62D counted along it

The Kd is the equilibrium constant for the complex coming apart. Lower therefore signals higher affinity. As for Hu5F9-G4, the Kd was determined as 8 pM with human CD47 [1]; 0.01 nM in the assay with cynomolgus CD47 [2]; 2.02 pM with human CD47 [3]; 7.24 pM with cynomolgus CD47 [4]; 0.0143 nM in the assay with human CD47 [5]; 0.0121 nM in the assay with cynomolgus CD47 [6].
